Measured values reported in US20250154215A1, “PHARMACEUTICAL COMPOSITION FOR TREATING COLITIS OR COLORECTAL CANCER COMPRISING COLON-TARGETED S100A8/A9-DERIVED SPECIFIC PEPTIDE” (Industry-University Cooperation Foundation Hanyang …, priority 2023, published 2025).
“Also recorded” adds a separate entry of the source.

What was measured:
OxaR HCT116 xenograft = assay: Parental or OxaR HCT116 xenograft tumor growth inhibition; type: in vivo, mice
Method: For tumor xenograft experiments, 4- to 6-week-old female athymic nude mice (Central Lab Animal Inc., Seoul, Korea) were used. 1×10^6 HCT116 cells suspended in 0.1 mL of a cell culture medium were injected subcutaneously into the animals' right axillary region and observed for 7 to 10 days while the tumor volume was measured. Treatment was initiated when the tumor size reached an average volume of 200 or 600 mm^3. The tumor volume was measured with a skin caliper every three days, calculated as (tumor length)×(tumor width)^2×0.5, and expressed in mm^3. All animals were maintained in a specific pathogen-free environment. All animal-related procedures were examined and approved by the Hanyang University Institutional Animal Care and Use Committee (protocol numbers: 2022-0145 and 2022-0266).
Next, tumor growth inhibition assays were performed under various tumor growth conditions, and rCT-S100A8/A9 treatment was started according to the size of the established tumors. For initial tumor growth, rCT-S100A8/A9 treatment was started 10 days after tumor establishment, and for actively growing tumors, rCT-S100A8/A9 treatment was started 21 days after tumor establishment.

[1] = DSS-induced acute colitis mouse model; type: in vivo, mice
Method: DSS-induced acute or chronic colitis and AOM/DSS CRC mouse models were prepared using 6-week-old C57BL/6 female mice (Samtako Bio, Osan, Korea). To assess the induction of acute colitis, mice were exposed ad libitum to 3% (w/v) dextran sodium sulfate (molecular weight: 36-50 kDa, MP Biomedicals, Santa Ana, CA, USA) dissolved in drinking water. The mouse models are illustrated in FIGS. 7A, 5E, and 6A. DSS solutions were prepared every two days. […] The humane endpoint for weight loss (requiring euthanasia) was 20% (compared to the original body weight of an animal). Without an approved exception request, body weight loss could not exceed 20%.
The clinical score of colitis was obtained by measuring body weight, fecal occult blood or total blood loss, and stool consistency every other day during the induction of colitis. The clinical score were assessed by two trained investigators who were randomly selected. For immunohistochemical analysis of tissue sections, mouse distal colon tissues were fixed in 10% formalin and embedded in paraffin. Paraffin sections ([…]) were cut and stained with H&E. Histopathological scoring was performed by a certified pathologist (Min-Kyung Kim, Department of Pathology, Kim Min-Kyung Pathology Clinic, Seoul, Korea) who scored each organ section independently without prior knowledge of the treatment group.
The therapeutic efficacy of rCT-S100A8/A9 on DSS-induced acute colitis in mice was evaluated. After colitis was induced by DSS, the mice were intraperitoneally injected with rCT-S100A8/A9 (50 μg/kg) once daily for 6, 7, or 8 days, and sacrificed on day 12 to evaluate the effect of treatment frequency (FIG. 7A, top). […] Next, the length of the colon, which is an indicator of colitis, was evaluated.

[2] = immunostaining, vs control group
[3] = vs rVehicle or rCT-treated group

B1: TWYKIAFQRNRKTWYKIAFQRNRKTWYKIAFQRNRKTWYKIAFQRNRKTWYKIAFQRNRKGGFLVIKGGAHKSHKGGITIITFGGGHHGGFLVIKGGAHKSHKGGITIITFGGGHHGGFLVIKGGAHKSHKGGITIITFGGGHHGG (protein)
chain: TWYKIAFQRNRKTWYKIAFQRNRKTWYKIAFQRNRKTWYKIAFQRNRKTWYKIAFQRNRKGGFLVIKGGAHKSHKGGITIITFGGGHHGGFLVIKGGAHKSHKGGITIITFGGGHHGGFLVIKGGAHKSHKGGITIITFGGGHHGG
modifications: N-terminal 6xHis tag
epithelial-to-mesenchymal transition in tumors (profiler PCR array) (OxaR HCT116 xenograft; HCT116 xenografts): regulates the involvement of epithelial-to-mesenchymal transition | interaction of S100 and PRRs in xenograft tumors (OxaR HCT116 xenograft; Western blot): significantly reduced | expression of E-cadherin in tumor sections (OxaR HCT116 xenograft; [2]): increased | expression of N-cadherin and β-catenin in tumor sections (OxaR HCT116 xenograft; [2]): decreased | tumor growth (OxaR HCT116 xenograft; initially growing and actively growing tumors): significantly inhibited tumor growth | survival rate ([1]; 50 μg/kg i.p. once daily, 3% DSS): significantly increased | colon damage (H&E staining) ([1]; 3% DSS acute colitis): reduced according to the frequency of rCT-S100A8/A9 treatment; also recorded: alleviated | colon length ([1]; 3% DSS acute colitis): recovered in proportion to the number of rCT-S100A8/A9 treatments | levels of pro-inflammatory cytokines (TNF-α, IL-1β, IL-6, IL-18) and MPO activity in colonic homogenates ([1]; DSS colitis): significantly reduced; also recorded: successfully reduced the secretion of IL-1β and IL-18 | TLR4 (or RAGE)-S100A8 (or S100A9) and NLRP3-ASC interactions in colon ([1]; colon co-IP, DSS treatment): decreased | body weight loss [1, 3]: less body weight loss | colitis scores [1, 3]: lower colitis scores
